This assay has as its target T1, GST-tagged yeast Sin3 PAH2 protein (residues 402-473) (S. cerevisiae, UniProt P22579 402-473).
T1 sequence (looked up): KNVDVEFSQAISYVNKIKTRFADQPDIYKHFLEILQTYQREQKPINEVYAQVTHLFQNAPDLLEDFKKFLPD
The assay can be described thus: fluorescence polarisation.

B1: unlabeled Ume6 SID peptide (Ume6 residues 516-531) (peptide, UniProt P39001 516-531, looked up)
peptide: LDDDLGTAAAVLSNMR
For B1, it took 53.3 ± 2.4 µM to reach half-maximal inhibition (IC50) and the Ki was determined as 11.4 µM.
